Test results as given in patent US20240025965A1 (UNIVERSITEIT TWENTE, published 2024).
Where no end group is shown, it is not given here. PEG linker = not defined here; PEG = not defined here

B1: SGATEWLRWFNS (peptide)
peptide: {glass slide-PEG}-SGATEWLRWFNS
modifications: reading uncertain
notes: alanine-scan variant of AXI-I; fixed on the array by its N-terminus through a PEG linker; also called AXI-I with L3 replaced by alanine

Each binder was assayed against T1, rhIntegrin α11β1 (human, UniProt Q9UKX5 23-1141; P05556 21-728, limits assumed) (assay: peptide microarray: peptide fixed by its N-terminus through a PEG linker, incubated with α11β1 receptor (10 µg/ml), anti-ITGA11 antibody and fluorescent secondary antibody, signal of the antibodies alone subtracted).
T1 construct: Bought from R&D Systems; also called α11β1 receptor; ITGA11 receptor
T1 sequence (Q9UKX5 23-1141 limits assumed, chain 1 of 2): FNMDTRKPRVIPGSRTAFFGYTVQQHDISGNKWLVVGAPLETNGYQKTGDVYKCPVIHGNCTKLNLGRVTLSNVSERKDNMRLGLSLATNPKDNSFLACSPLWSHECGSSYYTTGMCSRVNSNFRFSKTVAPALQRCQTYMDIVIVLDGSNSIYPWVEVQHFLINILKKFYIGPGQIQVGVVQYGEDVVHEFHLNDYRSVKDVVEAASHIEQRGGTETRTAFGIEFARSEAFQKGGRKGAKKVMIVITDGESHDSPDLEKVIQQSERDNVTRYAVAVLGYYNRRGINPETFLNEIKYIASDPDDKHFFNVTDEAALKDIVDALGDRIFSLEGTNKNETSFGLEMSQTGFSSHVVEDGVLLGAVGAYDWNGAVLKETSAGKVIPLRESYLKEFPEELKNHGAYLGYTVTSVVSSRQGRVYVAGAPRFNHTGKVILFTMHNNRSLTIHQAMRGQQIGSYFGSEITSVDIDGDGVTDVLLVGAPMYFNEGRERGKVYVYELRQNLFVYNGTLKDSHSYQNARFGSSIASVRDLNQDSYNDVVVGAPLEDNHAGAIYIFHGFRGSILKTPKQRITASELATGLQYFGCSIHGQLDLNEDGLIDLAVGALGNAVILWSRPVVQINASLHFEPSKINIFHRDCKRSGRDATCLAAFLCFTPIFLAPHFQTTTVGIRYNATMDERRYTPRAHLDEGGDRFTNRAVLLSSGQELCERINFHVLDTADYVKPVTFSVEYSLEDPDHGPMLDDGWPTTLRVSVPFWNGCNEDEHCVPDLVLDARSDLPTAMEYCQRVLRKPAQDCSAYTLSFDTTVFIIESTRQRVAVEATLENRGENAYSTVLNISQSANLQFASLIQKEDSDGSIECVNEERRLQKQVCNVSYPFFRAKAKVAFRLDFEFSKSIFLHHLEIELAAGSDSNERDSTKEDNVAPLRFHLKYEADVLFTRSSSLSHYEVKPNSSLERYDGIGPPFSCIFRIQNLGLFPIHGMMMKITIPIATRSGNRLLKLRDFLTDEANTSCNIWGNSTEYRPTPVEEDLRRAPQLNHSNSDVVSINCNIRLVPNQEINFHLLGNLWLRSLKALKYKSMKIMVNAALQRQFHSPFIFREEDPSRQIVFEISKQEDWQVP
T1 sequence (P05556 21-728 limits assumed, chain 2 of 2): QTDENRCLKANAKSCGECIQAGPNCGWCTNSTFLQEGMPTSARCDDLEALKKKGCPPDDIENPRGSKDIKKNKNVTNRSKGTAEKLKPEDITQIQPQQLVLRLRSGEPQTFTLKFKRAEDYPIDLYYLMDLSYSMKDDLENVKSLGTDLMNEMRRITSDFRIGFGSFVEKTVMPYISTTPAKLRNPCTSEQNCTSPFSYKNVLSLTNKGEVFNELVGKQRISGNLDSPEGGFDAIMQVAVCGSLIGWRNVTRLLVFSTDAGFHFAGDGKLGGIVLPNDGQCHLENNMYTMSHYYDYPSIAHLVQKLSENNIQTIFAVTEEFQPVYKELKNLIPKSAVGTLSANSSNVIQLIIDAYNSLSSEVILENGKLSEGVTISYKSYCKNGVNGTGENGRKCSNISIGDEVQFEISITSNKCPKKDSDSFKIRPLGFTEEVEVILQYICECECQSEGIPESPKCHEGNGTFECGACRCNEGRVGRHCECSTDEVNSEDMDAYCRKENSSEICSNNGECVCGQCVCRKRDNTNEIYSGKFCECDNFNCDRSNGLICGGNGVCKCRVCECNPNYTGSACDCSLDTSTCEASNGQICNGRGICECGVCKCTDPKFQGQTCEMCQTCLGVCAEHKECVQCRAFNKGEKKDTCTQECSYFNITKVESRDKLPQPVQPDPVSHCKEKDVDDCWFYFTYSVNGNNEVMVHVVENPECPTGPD
Protocol: Peptide microarray was prepared by conjugating peptides at their N-terminal to a glass slide using a PEG linker. […] For the binding studies, the peptide array was blocked with 3% BSA in TBST for 2 hours. Then the array slide was washed 5 times in TB ST and subsequently incubated with the target receptor (α11β1, 10 μg/ml dissolved in PBS) for 1 hour at 37° C. The slides were washed with TBST and then incubated with primary antibody (1 μg/ml) against ITGA11 for 1 hour at 37° C. Then slides were washed and incubated with fluorescent dye labeled secondary antibodies for 30 minutes. The slides were washed with TBST and water and then dried and scanned with a microarray scanner to detect binding of the peptides. The enlightened spots were analyzed using ImageJ software. To determine the unspecific binding, a peptide array was incubated with only primary and secondary antibodies without the receptor incubation step. Then, the signal of unspecific binding was subtracted from the total binding to calculate specific binding.

Does {glass slide-PEG linker}-SGLTEWLRWF (reading uncertain) bind?
Result: binds

Does {glass slide-PEG}-LRWFNS (reading uncertain) bind?
Result: binds

Does {glass slide-PEG}-LTEWLRWFNS (reading uncertain) bind?
Result: binds

Does {glass slide-PEG linker}-SGLTEWLRWFN (reading uncertain) bind?
Result: binds

Does {glass slide-PEG}-LTEWLRWF (reading uncertain) bind?
Result: binds

Does {glass slide-PEG linker}-SGLTEWLRW (reading uncertain) bind?
Result: binds

Does {glass slide-PEG linker}-WLRWFNS (reading uncertain) bind?
Result: binds

Does {glass slide-PEG}-AGLTEWLRWFNS (reading uncertain, Alanine at position 1 of AXI-I) bind?
Result: binds

Does {glass slide-PEG linker}-SGLTEWLRWFNA (reading uncertain, Alanine at position 12 of AXI-I) bind?
Result: binds

Does {glass slide-PEG linker}-SGLTEWARWFNS (reading uncertain, Alanine at position 7 of AXI-I) bind?
Result: binds

Does {glass slide-PEG linker}-SGLTEWLRAFNS (reading uncertain, Alanine at position 9 of AXI-I) bind?
Result: binds

Does {glass slide-PEG linker}-SGLTEALRWFNS (reading uncertain, Alanine at position 6 of AXI-I) bind?
Result: binds

Does {glass slide-PEG linker}-SGLTEWLAWFNS (reading uncertain, Alanine at position 8 of AXI-I) bind?
Result: binds

Does B1 bind?
Result: binds

Does {glass slide-PEG}-SGLTAWLRWFNS (reading uncertain, Alanine at position 5 of AXI-I) bind?
Result: binds

Does {glass slide-PEG}-SALTEWLRWFNS (reading uncertain, Alanine at position 2 of AXI-I) bind?
Result: binds

Does {glass slide-PEG}-SGLAEWLRWFNS (reading uncertain, Alanine at position 4 of AXI-I) bind?
Result: binds

Does {glass slide-PEG linker}-TEWLRWFNS (reading uncertain) bind?
Result: binds

Does {glass slide-PEG}-GLTEWLRWFNS (reading uncertain) bind?
Result: binds

Does {glass slide-PEG}-GLTEWLRWFN (reading uncertain) bind?
Result: binds

Does {glass slide-PEG}-EWLRWFNS (reading uncertain) bind?
Result: binds
